Numbering of substitutions follows the chain as printed.
B1: IgG1-F1204 (antibody)
heavy: QVQLQESGPGLVKPSETLSLTCAVSGHSISHDHAWSWVRQPPGEGLEWIGFISYSGITNYNPSLQGRVTISRDNSKNTLYLQMNSLRAEDTAVYYCARSLARTTAMDYWGEGTLVTVSSASTKGPSVFPLAPSSKSTSGGTAALGCLVKDYFPEPVTVSWNSGALTSGVHTFPAVLQSSGLYSLSSVVTVPSSSLGTQTYICNVNHKPSNTKVDKKVEPKSCDKTHTCPPCPAPELLGGPSVFLFPPKPKDTLYITRQPEVTCVVVDVSHEDPEVKFNWYVDGVEVHNAKTKPREEQYNSTYRVVSVLTVLHQDWLNGKEYKCKVSNKALPAPIEKTISKAKGQPREPQVYTLPPSRDELTKNQVSLTCLVKGFYPSDIAVEWESNGQPENNYKTTPPVLDSDGSFFLYSKLTVDKSRWQQGNVFSCSVMHEALHYHVTRKELSLSP
light: not shown
notes: EU numbering; copies: 2 + 2
B2: IgG1-F1260 (antibody)
heavy: B1 heavy with L237R, S241K, T256S, Q258T, T309Q, Q313H
light: not shown
notes: EU numbering; copies: 2 + 2
B3: IgG1-F1256 (antibody)
heavy: B1 heavy with L237R, S241K, T256S, Q258T, Q313H
light: not shown
notes: EU numbering; copies: 2 + 2
B4: IgG1-F1205 (antibody)
heavy: B1 heavy with T252V, T256S
light: not shown
notes: EU numbering; copies: 2 + 2
B5: IgG1-F1264 (antibody)
heavy: B1 heavy with L237R, S241K, T256S, Q258A
light: not shown
notes: EU numbering; copies: 2 + 2
B6: IgG1-F1275 (antibody)
heavy: B1 heavy with L237R, S241K, T256S, H435D, R440K, E442D
light: not shown
notes: EU numbering; copies: 2 + 2
B7: IgG1-F1271 (antibody)
heavy: B1 heavy with L237R, S241K, T256A, Q258T, H435D
light: not shown
notes: EU numbering; copies: 2 + 2
B8: IgG1-F1276 (antibody)
heavy: B1 heavy with L237R, S241K, T256S, Q258A, R440K, E442D
light: not shown
notes: EU numbering; copies: 2 + 2
B9: IgG1-F1246 (antibody)
heavy: B1 heavy with L237R, S241K, T252V, Q258T
light: not shown
notes: EU numbering; copies: 2 + 2
B10: IgG1-F1270 (antibody)
heavy: B1 heavy with L237R, S241K, T256A, Q258T, R440K, E442D
light: not shown
notes: EU numbering; copies: 2 + 2
B11: IgG1-F1258 (antibody)
heavy: B1 heavy with L237R, S241K, T256S, Q258T, T309A, Q313H
light: not shown
notes: EU numbering; copies: 2 + 2
B12: IgG1-F1266 (antibody)
heavy: B1 heavy with L237R, S241K, T256S, Q258N
light: not shown
notes: EU numbering; copies: 2 + 2
B13: IgG1-F1265 (antibody)
heavy: B1 heavy with L237R, S241K, T256S, Q258G
light: not shown
notes: EU numbering; copies: 2 + 2
B14: IgG1-F1208 (antibody)
heavy: B1 heavy with L253A, T256S, Q258T, R440Q, E442S
light: not shown
notes: EU numbering; copies: 2 + 2
B15: IgG1-F1231 (antibody)
heavy: B1 heavy with T256S, Q258T, R440K
light: not shown
notes: EU numbering; copies: 2 + 2
B16: IgG1-F1243 (antibody)
heavy: B1 heavy with L237R, S241K, Q258T
light: not shown
notes: EU numbering; copies: 2 + 2
B17: IgG1-F1251 (antibody)
heavy: B1 heavy with L237R, S241K, T252V, T256S
light: not shown
notes: EU numbering; copies: 2 + 2
B18: IgG1-F1259 (antibody)
heavy: B1 heavy with L237R, S241K, T256S, Q258T, T309Q, Q313A
light: not shown
notes: EU numbering; copies: 2 + 2
B19: IgG1-F1207 (antibody)
heavy: B1 heavy with Y254M, T256S, Q258T, I334E, M430L, Y436S, V438Y, R440Q, E442S
light: not shown
notes: EU numbering; copies: 2 + 2
B20: IgG1-F1254 (antibody)
heavy: B1 heavy with L237R, S241K, T256S, Q258T, T309Q
light: not shown
notes: EU numbering; copies: 2 + 2
B21: IgG1-F1273 (antibody)
heavy: B1 heavy with L237R, S241K, T256S, R440K, E442D
light: not shown
notes: EU numbering; copies: 2 + 2
B22: IgG1-F1247 (antibody)
heavy: B1 heavy with L237R, S241K, T252V, T256S, Q258E
light: not shown
notes: EU numbering; copies: 2 + 2
B23: IgG1-F1211 (antibody)
heavy: B1 heavy with L253H, T256S, Q258T, R440Q, E442S
light: not shown
notes: EU numbering; copies: 2 + 2
B24: IgG1-F1252 (antibody)
heavy: B1 heavy with L237R, S241K, T252V
light: not shown
notes: EU numbering; copies: 2 + 2
B25: IgG1-F1253 (antibody)
heavy: B1 heavy with L237R, S241K, T256S, Q258T, T309A
light: not shown
notes: EU numbering; copies: 2 + 2
B26: IgG1-F1261 (antibody)
heavy: B1 heavy with L237R, S241K, T256S, Q258T, E442D
light: not shown
notes: EU numbering; copies: 2 + 2
B27: IgG1-F1249 (antibody)
heavy: B1 heavy with L237R, S241K, T256S
light: not shown
notes: EU numbering; copies: 2 + 2
B28: IgG1-F1272 (antibody)
heavy: B1 heavy with L237R, S241K, T256A, Q258T, H435D, R440K, E442D
light: not shown
notes: EU numbering; copies: 2 + 2
B29: IgG1-F1230 (antibody)
heavy: B1 heavy with T256S, Q258T, E442D
light: not shown
notes: EU numbering; copies: 2 + 2
B30: IgG1-F1216 (antibody)
heavy: B1 heavy with L253S, T256S, Q258T, R440Q, E442S
light: not shown
notes: EU numbering; copies: 2 + 2
B31: IgG1-F1218 (antibody)
heavy: B1 heavy with L253V, T256S, Q258T, R440Q, E442S
light: not shown
notes: EU numbering; copies: 2 + 2
B32: IgG1-F1229 (antibody)
heavy: B1 heavy with I255V, T256S, Q258T, R440Q, E442S
light: not shown
notes: EU numbering; copies: 2 + 2
B33: IgG1-F1217 (antibody)
heavy: B1 heavy with L253T, T256S, Q258T, R440Q, E442S
light: not shown
notes: EU numbering; copies: 2 + 2
B34: IgG1-F1206 (antibody)
heavy: B1 heavy with T252V
light: not shown
notes: EU numbering; copies: 2 + 2
B35: IgG1-F1257 (antibody)
heavy: B1 heavy with L237R, S241K, T256S, Q258T, T309A, Q313A
light: not shown
notes: EU numbering; copies: 2 + 2
B36: IgG1-F1250 (antibody)
heavy: B1 heavy with L237R, S241K
light: not shown
notes: EU numbering; copies: 2 + 2
B37: IgG1-F1255 (antibody)
heavy: B1 heavy with L237R, S241K, T256S, Q258T, Q313A
light: not shown
notes: EU numbering; copies: 2 + 2
B38: IgG1-F1269 (antibody)
heavy: B1 heavy with L237R, S241K, T256S, Q258T, H435D, R440K, E442D
light: not shown
notes: EU numbering; copies: 2 + 2
B39: IgG1-F1274 (antibody)
heavy: B1 heavy with L237R, S241K, T256S, H435D
light: not shown
notes: EU numbering; copies: 2 + 2
B40: IgG1-F1232 (antibody)
heavy: B1 heavy with T256S, Q258T, R440K, E442D
light: not shown
notes: EU numbering; copies: 2 + 2
B41: IgG1-F1244 (antibody)
heavy: B1 heavy with L237R, S241K, T256S, Q258E
light: not shown
notes: EU numbering; copies: 2 + 2
B42: IgG1-F1263 (antibody)
heavy: B1 heavy with L237R, S241K, T256S, Q258T, R440K, E442D
light: not shown
notes: EU numbering; copies: 2 + 2

target: T1, soluble human FcRn (human, UniProt P55899 24-297; P61769 21-119); assay: SPR (Biacore T100), antibody captured by protein L, hFcRn as analyte, pH 7.0, 25 C;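 note: KD calculated from fitted association and dissociation rate constants of the sensorgrams, protein L amine-coupled to the sensor chip, sodium phosphate running buffer with NaCl and Tween20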
T1 construct: Heterodimer of FcRn alpha chain and beta2-microglobulin; also called hFcRn
Method: An appropriate amount of protein L (ACTIGEN) was immobilized onto Sensor chip CM4 (GE Healthcare) by the amino coupling method, and the chip was allowed to capture an antibody of interest. Then, diluted FcRn solutions and running buffer (as a reference solution) were injected to allow human FcRn to interact with the antibody captured on the sensor chip. The running buffer used comprised 50 mmol/l sodium phosphate, 150 mmol/l NaCl, and 0.05% (w/v) Tween20 (pH 7.0). FcRn was diluted using each buffer. The chip was regenerated using 10 mmol/l glycine-HCl (pH 1.5). Assays were carried out exclusively at 25 degrees C. The association rate constant ka (1/Ms) and dissociation rate constant kd (1/s), both of which are kinetic parameters, were calculated based on the sensorgrams obtained in the assays, and KD (M) of each antibody for human FcRn was determined from these values. Each parameter was calculated using Biacore T100 Evaluation Software (GE Healthcare).

Kd	Binder
120 nM	B1
65 nM	B2
160 nM	B3
200 nM	B4
130 nM	B5
210 nM	B6
200 nM	B7
100 nM	B8
170 nM	B9
120 nM	B10
110 nM	B11
100 nM	B12
160 nM	B13
570 nM	B14
97 nM	B15
130 nM	B16
280 nM	B17
45 nM	B18
1100 nM	B19
64 nM	B20
150 nM	B21

Kd	Binder
150 nM	B22
1200 nM	B23
230 nM	B24
110 nM	B25
140 nM	B26
210 nM	B27
170 nM	B28
110 nM	B29
1200 nM	B30
250 nM	B31
2800 nM	B32
1100 nM	B33
170 nM	B34
78 nM	B35
170 nM	B36
110 nM	B37
170 nM	B38
250 nM	B39
98 nM	B40
100 nM	B41
120 nM	B42

Source: patent publication US20140363428A1 (Chugai, published 2014)
